Source: the nanobody polyreactivity screen of Harvey et al. (2022)

Assay: yeast display, Sf9 membrane polyspecificity reagent, FACS + sequencing; frameworks hold sequencing errors
Summary of the method: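 Polyreactivity labels are assigned by the sorting gate from which each nanobody was recovered. The gates were low and high (top ~1%), set on anti-HA fluorescence for expression and streptavidin fluorescence for reagent binding. Before sorting, galactose-induced (36–48 hours) yeast display cells were stained for 1 hour at 4 °C with 10% biotinylated, detergent-solubilized Sf9 membrane reagent.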

| Sequence | polyreactivity (PSR sort gate) |
| --- | --- |
| QVQLEESGGGLGQAGGSLRLTCAASGSIFDTYTMGWYRQATRIEWELVAAITSGTTTTYADSVKGRFTISRDNGLNTVYLKINSLNPEDTAVYYCGARTSGSFDYWGQGPQVTVSS | low polyreactivity |
| QVQLEESGGGLLKEGGSLRLSCAASGRLFYGYTIGRSRQAPGKERELVAAISRNGGSTYYADSVKGRFTISRDNAKNTVYFHMNSLKTEDSAVYYCNAVFSRGYVIKPYDYWGQGTQVTVSS | high polyreactivity |
| QVQLEESGGGLVHAGGSLRLSCAASGFIFKANAMGWYRQAPGKEREFVASISSSGGSTYYADSVKGRFTISRDNAKNTVYLHMNSLKPEDTAVYYCAAYTGYRHSRINLGYWGQGTQVTVSS | high polyreactivity |
| QVQLEESGGGLVHAGGSLRLSCAASGFTCDNYAMGWYRQAPGKERELVAAISNSGGRTYYADSVKGRFTISRDNAKNTVYLQMNSLKPEDTAVYYCTIFKDFDYWGQGTQVTVSS | high polyreactivity |
| QVQLEESGGGLVKAGGSLRLTCAASGIIFVEYAMGWYRQAPGKERELVARIRYSGGSTYYADSVKGRFTISRDNAKNTVYLQMNSLQPEDTAVYYCNALLPYIYDYWGKGTQVTVSS | low polyreactivity |
| QVQLEESGGGLVPAGGILRLSCAASGSIFSPNAIGWYRQAAGKEMELDASISSRGGSTYYADSVKGRFNISRDYAKNTVYLKMNSLKPEDTAVYYCAAAVQTRRGTRFDYWGQGTQVTVSS | low polyreactivity |
| QVQLEESGGGLVQAAGSLRLSSAASGSTFRYYAMGWYRQAPGKDRELVAAITRSRGSTYYADSVKGRFTISRDKAKNHVYLQMNSVKQEDTEVYYCAARGQTGYYSGVGYWGQGTQVTVSS | high polyreactivity |
| QVQLEESGGGLVQAGASLRLSCAASGRTFGSYAMGWYRQAPGKERELVAAISLSAGSTYYADSVKGRFTISRDNAKNTVYLQMNSLKPEDTAVYYCAAGTQWYSHVFIYYYWGQGTQVTVSS | low polyreactivity |
| QVQLEESGGGLVQAGGCLRLSCAASGSIFEWYAMGWYRQAPGKERELVADISSVGSTYYADSVKGRFTISRDNAKNTVYLQMNSLKPEDTAVYYCNTSYIIWYDSWGQGTQVTVSS | low polyreactivity |
| QVQLEESGGGLVQAGGRLRLRCAASATYRYYGMGWYRQQPGNERELVAAISRSGSRTYYADSVKGRFTISRDNAKNTVYLQMNSLKPEESAFYYCAASSVYYGYDYWGQGTQVTVSS | high polyreactivity |
| QVQLEESGGGLVQAGGRLRLSCAASGFTFGRYTMGWYRHAPGKERELVAAITWTGGRTYYADSVKGRFTISRDNAKNTVYLQMNSLKPEDTAVYYCAADTTIIIAQSEDDLWGQGTQVTVSS | high polyreactivity |
| QVQLEESGGGLVQAGGRLRLSCAASGSIFTGYTMGWYRQAPGKERELVASISRRGGRTYYADSVKGRFTISRDNAKNTVYLQMNSLKPEDTAVYYCAVDRVPWRYQDSYNYWGQGTQVTVSS | high polyreactivity |
| QVQLEESGGGLVQAGGRLRLSCAASGSTFVDYAMGWYRQAPGKQRELVAAISWRGGSTYYADSVKGRFTISRDNAKKTVYLQMNSLKPEDTAVYYCAAEHSGRSPYGYGYWGQGTQVTVSS | high polyreactivity |
| QVQLEESGGGLVQAGGRLRLTCAASGRTFFGYPMGWYRQAPGKERELVAAITSSGGRTYYADSVKGRFTISRDNPKNTDYLQMNSLKPEDTAVYYCAARRYRLSTPEFNYWGQGTQVTVSS | high polyreactivity |
| QVQLEESGGGLVQAGGSLRISCAASGKIFSYNAMGWYRHAPGKERELVAAISRSGGSTYYADSVKGRFTISRDNAKNTVYLQMNSLKPEDTAVYYCAADWRGRKYDYWGQVTQVTVSS | high polyreactivity |
| QVQLEESGGGLVQAGGSLRISCAASGRTFYVNAMGRSRQAPGKERELVAAIRYSDGRTYYADSVKGRFTISRDNAKNTVYLQMNSLKPEDTAVYYCAADTRFISRENYWGQGTQVTVSS | high polyreactivity |
| QVQLEESGGGLVQAGGSLRISCAAYGSTFYYNVMGWYRQAPGKERELVAAITWRGDITYYADSVKGRFTISRDNAKYNVYLQMKCLKPEDTAVFYCAKRYQPSYRSNFWGEGTQVTVSS | low polyreactivity |
| QVQLEESGGGLVQAGGSLRLICAASGFIFLYYAMGWYRQAPGKERELVAAIDYSGGSTNYADSVKGRFTISRDNAKNTVYLQMHSLKPEDTAVYFFNAEYTWHRGYDYWGQGTQVTVSS | low polyreactivity |
| QVQLEESGGGLVQAGGSLRLICAASGLTFPPNSMRWYRQATGKERELVADSGGSTNYADSVKGRFTISRDNAKNNVYLQMNSLKPEDTAVYYCAAPPYSDGQWDDYWGQGTQVTVSS | low polyreactivity |
| QVQLEESGGGLVQAGGSLRLICAASGLTFYSYAMGWYRQAPGKERELVATIRWSGGSTYYADSVKGRFTISRDNANNTVYLQMNSLKPEDTAVYYCNKRRYPVGSLFDYWGQGTQVTVSS | low polyreactivity |
| QVQLEESGGGLVQAGGSLRLICAASGSTFYPNAMGWYRQAPGKERELVAAITDSVGTTNYADSVKGRFTISRDNAKNTVYLQMNSLKPEDTAVYYCAKVKSYWNGYRYYYWGHGTQVTVSS | low polyreactivity |
| QVQLEESGGGLVQAGGSLRLSCAASGAIFDGYGMGGYSQAPGQERELVAAIRWGDGITYYADSVKGRFTISRDNAKTTVYLQMNRLKPDDTAVYYCAAVQHGHEPRVQASYDYWGQGTQVTVSS | low polyreactivity |
| QVQLEESGGGLVQAGGSLRLSCAASGFIFGKNDMGWYRQAPWKERELVAAITIGGSTNYADSVKGRFTISRDNAKNTVYLQMNSLKPEDTAVYYCNADSYHYGTSLYNYWGQGTQVTVSS | low polyreactivity |
| QVQLEESGGGLVQAGGSLRLSCAASGFIFLLNFMGWYRQAPAKDRELVAGNRSSTASTYYADSVKGRFTISRDNAKNTFYLEMNCLKPEDTAVSYCAAVSGWQYEYYSWGQGTQVTVSS | low polyreactivity |
| QVQLEESGGGLVQAGGSLRLSCAASGFIFTPYAMGWYRQAPGKERELVAAISRSGGSTYYADSVKGRFTISRDNAKNTVYLQMNSLKPEDTAVYYCAADVYRTAYYYGSYYWGQGTQVTVSS | high polyreactivity |
| QVQLEESGGGLVQAGGSLRLSCAASGFIFYIYAMGWYRQAPGKERELVAAITSGGSTNYADSVKGRFTITRDNAKNTVYLQMNSLKPEDTAVYYCAADSYYGYDYWGQVTQVTVSS | low polyreactivity |
| QVQLEESGGGLVQAGGSLRLSCAASGFIITGYTMGWYRQAPGKERELVAVISYSGGNTYYADSVKGRFTSSRDNEKNTVYLQMISVKPDYTAVYYCNKLTYKGYEYWGQGTQVNVSS | high polyreactivity |
| QVQLEESGGGLVQAGGSLRLSCAASGFIITWYTMGWYRQAPGKERELVAAITSGGNTNYADSVKGRFTISRDNAKNTVYLQMNCLKPEDTAVYYCARGYLASRLKFAKYDYWGQGTQVTVSS | high polyreactivity |
| QVQLEESGGGLVQAGGSLRLSCAASGFTFFQYAMGWYRQAPGKERELVAAITSGVSTNYADSVKGRFTISRDNAKNTVYVQMNSLKPEDTAVYYCAADPRSLQSWRGEFAGEYWGQGTQVTVSS | low polyreactivity |
| QVQLEESGGGLVQAGGSLRLSCAASGFTFFSYYAMGWYIQAPGKERELVATITSGASTNYADSVKGRFTISRDNAKNTVYLQMNSLKPEDTAVYYCAAAYFYWRVDKYYYWGQGTQVTVSS | low polyreactivity |
